US20150368659

What was measured:
[1] = system: GBSS_T1 TALE-nuclease right monomer (synthetic construct (Xanthomonas TALE)?); assay: cell_activity; conditions: pair with left monomer; S. tuberosum protoplasts; 23% with TREX2 co-delivered; full target SEQ 5
[2] = system: GBSS_T1 TALE-nuclease left monomer (synthetic construct (Xanthomonas TALE)?); assay: cell_activity; conditions: pair with right monomer; S. tuberosum protoplasts; 23% with TREX2 co-delivered; full target SEQ 5

Sequence	activity (% NHEJ mutagenesis) [1]	activity (% NHEJ mutagenesis) [2]
AGCTTGATGGGCTCCAA (double strand) [GBSS_T1 right half-site]	11	–
TCTGACTCACAATGGTT (double strand) [GBSS_T1 left half-site]	–	11
